Laboratory results from publication PMC2998437, “S. aureus MscL Is a Pentamer In Vivo but of Variable Stoichiometries In Vitro: Implications for Detergent-Solubilized Membrane Proteins” (PLoS Biology, 2010).

Tests used:
[1] = target: L10C/L89C SaMscL (S. aureus) (UniProt Q6G9L1); assay: cross-linking; in vivo disulfide trapping of double-cysteine mutants in the cell membrane; cells osmotically shocked (water with 1.5 uM copper phenanthroline, 15 min, 37 C) or mock shocked; non-reducing SDS-PAGE, anti-Penta His Western blot
[2] = target: the molecule itself; assay: SEC-MALS; SaMscL purified in LDAO, then exchanged into C8E5 and measured the following day
[3] = target: the molecule itself; assay: cross-linking; purified protein in LDAO (2.1 mM final); 5 ug protein with 2 mM DSS on ice for 5 min; anti-Penta His Western blot
[4] = target: the molecule itself; assay: cross-linking; in vivo disulfide trapping of double-cysteine mutants in the cell membrane; cells osmotically shocked (water with 1.5 uM copper phenanthroline, 15 min, 37 C) or mock shocked; non-reducing SDS-PAGE, anti-Penta His Western blot

L10C/L89C SaMscL (from UniProt Q6G9L1 1-120) (natural protein)
stoichiometry N [1]: 5

B1: S. aureus mechanosensitive channel of large conductance (SaMscL) (natural protein, UniProt Q6G9L1 1-120, looked up)
chain: MLKEFKEFALKGNVLDLAIAVVMGAAFNKIISSLVENIIMPLIGKIFGSVDFAKEWSFWGIKYGLFIQSVIDFIIIAFALFIFVKIANTLMKKEEAEEEAVVEENVVLLTEIRDLLREKK
notes: MscL, large-conductance mechanosensitive channel of S. aureus, GenBank CAG43065; printed monomer mass 14.4 kDa; the printed GenBank entry holds; Pentamer in Triton X-100 and C8E5 and in vivo; tetramer in LDAO (copies would then be 4); Expressed from two vectors (pET21a, pB10) with no difference reported; also called S. aureus MscL; source: E. coli PB116 (pET21a), purified (DM extraction, Ni-NTA, …)
stoichiometry N [2]: 5
stoichiometry N [3]: 4

B2: L10C/M91C SaMscL (natural protein)
chain: MLKEFKEFACKGNVLDLAIAVVMGAAFNKIISSLVENIIMPLIGKIFGSVDFAKEWSFWGIKYGLFIQSVIDFIIIAFALFIFVKIANTLCKKEEAEEEAVVEENVVLLTEIRDLLREKK
notes: also called L10C/M91C protein; source: bacterial cultures induced with 1 mM IPTG, in the cell membrane (cells lysed in sample buffer)
stoichiometry N [4]: 5
